# Source: the supplement of paper PMC7125110
# ± gives the standard error. For some of these results: Variants at the floor of the assay were thinned out.
# B1: glmS ribozyme (parent)
# chain: AUAAAAGCGCCAGAACUACAGAAAUGUAGUUGACGAGGAGGAGGUUUAUCGAAUUUUCGGCGGAUGCCUCCAAA
# Legend:
# Details in all cases: with glucosamine-6-phosphate
# glucosamine-6-phosphate [1] = variants of: B1; assay: kcat; higher = faster cleavage; RNA array
# How it was run: (§1)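 The measurements used barcoded ribozyme variants on sequenced MiSeq chips, transcribed in situ by E. coli RNA polymerase and tracked at 37 °C with a hybridised Cy3 probe. Glucosamine-6-phosphate, 40 μM to 10 mM in HEPES/KCl/Mg(OAc)2 buffer, was flowed in while tiles were imaged over ~14 h. Baseline-normalised signals, also normalised to non-cleaving reference variants, gave per-tile medians that were fit to one- or two-exponential decays for kobs. kcat and KM resulted from weighted Michaelis–Menten fits across concentrations.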
# glucosamine-6-phosphate [2] = variants of: B1; assay: KM; higher = weaker cofactor use; RNA array
# How it was run: as §1
# glucosamine-6-phosphate [3] = variants of: B1; assay: self-cleavage kobs at 160 uM GlcN6P; higher = faster cleavage; RNA array
# How it was run: as §1
# glucosamine-6-phosphate [4] = variants of: B1; assay: self-cleavage kobs at 640 uM GlcN6P; higher = faster cleavage; RNA array
# How it was run: as §1
# glucosamine-6-phosphate [5] = variants of: B1; assay: self-cleavage kobs at 2500 uM GlcN6P; higher = faster cleavage; RNA array
# How it was run: as §1
# glucosamine-6-phosphate [6] = variants of: B1; assay: self-cleavage kobs at 10000 uM GlcN6P; higher = faster cleavage; RNA array
# How it was run: as §1
# glucosamine-6-phosphate [7] = variants of: B1; assay: self-cleavage kobs at 40 uM GlcN6P; higher = faster cleavage; RNA array
# How it was run: as §1
Variant,kcat (glucosamine-6-phosphate [1]) [s⁻¹],KM (glucosamine-6-phosphate [2]) [µM],self-cleavage kobs at 160 uM GlcN6P (glucosamine-6-phosphate [3]) [s⁻¹],self-cleavage kobs at 640 uM GlcN6P (glucosamine-6-phosphate [4]) [s⁻¹],self-cleavage kobs at 2500 uM GlcN6P (glucosamine-6-phosphate [5]) [s⁻¹],self-cleavage kobs at 10000 uM GlcN6P (glucosamine-6-phosphate [6]) [s⁻¹],self-cleavage kobs at 40 uM GlcN6P (glucosamine-6-phosphate [7]) [s⁻¹]
A52G U56A,0.00139 ± 0.00027,4470 ± 1300,6.31e-05 ± 1.3e-05,0.000166 ± 2.9e-05,0.000441 ± 7.1e-05,0.00102 ± 0.00014,–
A12C G41A,0.00163 ± 0.00065,–,0.000107 ± 1.7e-05,0.000353 ± 3.5e-05,0.00105 ± 0.00012,0.00136 ± 0.00017,7.57e-05 ± 9.1e-06
A15C C16U,0.00405 ± 0.00069,3220 ± 830,0.000159 ± 4.5e-05,0.000777 ± 0.0001,0.00235 ± 0.00038,0.0029 ± 0.0003,4.37e-05 ± 7.4e-06
G40U A53U,0.00278 ± 0.00064,1300 ± 390,0.000254 ± 3.2e-05,0.000821 ± 9.1e-05,0.00203 ± 0.00093,0.00266 ± 0.00031,0.000101 ± 8.3e-06
A14C G26A,0.00194 ± 0.00022,1030 ± 190,–,0.000887 ± 0.00023,0.00142 ± 0.00041,0.00166 ± 0.00037,6.7e-05 ± 1.7e-05
A39C A52G,0.000297 ± 5.1e-05,2850 ± 940,–,4.74e-05 ± 8.3e-06,0.00017 ± 2.1e-05,0.000217 ± 2.6e-05,–
U47C A52U,0.00034 ± 5.8e-05,3930 ± 1200,–,3.84e-05 ± 1.6e-05,0.000145 ± 2.3e-05,0.000231 ± 4.7e-05,–
G59A G63U,< 1e-05,294 ± 68,–,–,< 1e-05,–,< 1e-05
A15U U47A,0.00433 ± 0.0014,1960 ± 890,0.000273 ± 6.7e-05,0.000846 ± 0.00036,0.00263 ± 0.00057,0.00356 ± 0.0009,0.00015 ± 3.6e-05
G62U U69A,2.59e-05 ± 3.9e-06,–,–,–,–,–,–
U31C A53U,0.00494 ± 0.0007,2460 ± 510,0.000269 ± 4.7e-05,0.000925 ± 8.8e-05,0.00236 ± 0.00022,0.00421 ± 0.00036,9.39e-05 ± 8.5e-06
G38C C68G,1.31e-05 ± 3.9e-06,–,–,–,–,–,–
U45C C71U,0.00401 ± 0.00038,2470 ± 340,0.000236 ± 5.8e-05,0.000828 ± 0.00012,0.00167 ± 0.00031,0.00338 ± 0.00033,6.69e-05 ± 7.5e-06
C58G C71A,3.56e-05 ± 9.8e-06,–,4.45e-05 ± 1e-05,–,4.27e-05 ± 7.5e-06,1.89e-05 ± 9.2e-06,–
G29U U30G,0.00393 ± 0.0013,1780 ± 820,0.000286 ± 5.6e-05,0.00131 ± 0.00023,0.00182 ± 0.00035,0.00493 ± 0.001,9.59e-05 ± 1.7e-05
A12G G37U,< 1e-05,–,–,–,–,< 1e-05,–
U54A C58A,0.000802 ± 0.00016,5450 ± 1700,2.83e-05 ± 1.3e-05,9.65e-05 ± 1.3e-05,0.000217 ± 2.9e-05,0.000547 ± 5.7e-05,–

Variant,kcat (glucosamine-6-phosphate [1]) [s⁻¹],KM (glucosamine-6-phosphate [2]) [µM],self-cleavage kobs at 160 uM GlcN6P (glucosamine-6-phosphate [3]) [s⁻¹],self-cleavage kobs at 640 uM GlcN6P (glucosamine-6-phosphate [4]) [s⁻¹],self-cleavage kobs at 2500 uM GlcN6P (glucosamine-6-phosphate [5]) [s⁻¹],self-cleavage kobs at 10000 uM GlcN6P (glucosamine-6-phosphate [6]) [s⁻¹],self-cleavage kobs at 40 uM GlcN6P (glucosamine-6-phosphate [7]) [s⁻¹]
G13C C70A,1.11e-05 ± 3.3e-06,–,–,–,–,–,–
A53C C71U,0.00685 ± 0.001,1760 ± 360,0.000539 ± 0.0001,0.00167 ± 0.00036,0.00474 ± 0.00067,0.00509 ± 0.0011,0.000156 ± 2.5e-05
A14C A15C,0.00204 ± 0.00038,2740 ± 760,0.000103 ± 1.6e-05,0.000339 ± 4.6e-05,0.0011 ± 0.00014,0.00157 ± 0.00017,4.27e-05 ± 6.9e-06
G40C U55A,9.7e-05 ± 1.9e-05,–,0.000138 ± 6.6e-05,0.000125 ± 2.3e-05,7.26e-05 ± 1.4e-05,0.000133 ± 2.8e-05,–
U47G A53G,0.00632 ± 0.0012,804 ± 250,0.000975 ± 0.00019,0.00317 ± 0.00055,0.00362 ± 0.00064,0.0074 ± 0.00097,0.000319 ± 4.7e-05
G13A G21U G37U C70U,< 1e-05,–,–,–,< 1e-05,–,–
C50A U54G U55C,1.47e-05 ± 3.9e-06,–,–,–,–,–,–
C11A A53G,0.000202 ± 9.2e-06,2130 ± 240,–,4.47e-05 ± 1e-05,0.000112 ± 1.2e-05,0.000164 ± 1.8e-05,–
C8A C70A,1.28e-05 ± 2.3e-06,–,–,–,–,–,–
U57C,0.000311 ± 3.8e-06,3180 ± 76,1.34e-05 ± 2.2e-06,5.24e-05 ± 1.5e-06,0.000136 ± 3.2e-06,0.000236 ± 4.4e-06,–
C16G A52G,0.000339 ± 0.0001,–,–,7.43e-05 ± 2.3e-05,0.000119 ± 1.9e-05,0.000262 ± 4.1e-05,–
A15G A36U,< 1e-05,–,< 1e-05,< 1e-05,–,–,–
A6C G37U,< 1e-05,–,–,–,–,–,< 1e-05
G13U G51A,< 1e-05,–,–,< 1e-05,< 1e-05,< 1e-05,–
A12C G59C,1.09e-05 ± 2.5e-06,–,–,–,–,–,–
C11A C50U A64U,< 1e-05,–,–,–,–,–,–
